Assay results: patent US12331106B2, “Anti-angiopoietin-2 antibodies that induce Tie2 activation” (Institute for Basic Science, priority 2018, dated 2025)

Key:
hAng2 = target: T1, hAng2 (Homo sapiens, UniProt O15123); assay: OCTET affinity of humanized anti-Ang2 antibodies against hAng2; type: binding; details: OCTET, antibody fixed on AR2G biosensor, hAng2 50-0 nM, 1:1 binding model
T1 sequence (O15123 19-496): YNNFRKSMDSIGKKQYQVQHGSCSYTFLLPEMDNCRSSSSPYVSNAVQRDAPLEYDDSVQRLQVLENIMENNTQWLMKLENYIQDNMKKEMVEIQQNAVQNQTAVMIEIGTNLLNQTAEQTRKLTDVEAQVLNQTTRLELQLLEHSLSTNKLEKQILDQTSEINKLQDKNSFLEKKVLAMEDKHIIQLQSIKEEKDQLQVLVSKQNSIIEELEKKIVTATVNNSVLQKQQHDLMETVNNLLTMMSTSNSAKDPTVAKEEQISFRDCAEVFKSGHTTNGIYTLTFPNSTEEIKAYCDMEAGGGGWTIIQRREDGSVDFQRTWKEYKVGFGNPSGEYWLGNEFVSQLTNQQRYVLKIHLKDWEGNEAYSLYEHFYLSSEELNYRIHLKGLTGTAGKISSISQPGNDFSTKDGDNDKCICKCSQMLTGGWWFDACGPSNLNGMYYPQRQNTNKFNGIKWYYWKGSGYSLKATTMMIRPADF
Method: The affinity of humanized anti-Ang2 antibody against hAng2 was measured using OCTET® system (ForteBio). Specifically, buffer and samples were measured in total 200 μl/well using Black 96-well plates (96 well F-type black plates, Greiner). The biosensor used for affinity measurements was hydrated for 10 min before measurement with AR2G tip (ForteBio OCTET®). After the hydration, humanized anti-Ang2 antibody was diluted in 10 mM sodium acetate, pH 6.0 buffer at a concentration of 10 μg/ml, fixed on AR2G biosensor, and blocked with 1M ethanolamine. The recombinant hAng2 was diluted to 50, 25, 12.5, 6.25, 3.125, and 0 nM with 1× kinetic buffer, and subjected to association for 300 sec and dissociation for 900 sec. For affinity measurement (KD), association rate (K-on) and dissociation rate (K-off) were analyzed by binding curve (global) and fitted to 1:1 binding model using OCTET® data analysis v9.0.0.10 program.
The affinities of humanized 2C8 antibodies to hAng2 were in Table 15.

[1] = system: downstream signaling of the Tie2 receptor (Akt phosphorylation) in HUVECs; assay: Akt phosphorylation in HUVECs by humanized anti-Ang2 antibodies (immunoblot); type: cell-based, human; details: hAng2 1 μg/ml, 30 min, antibody 0.5 μg/ml, maintained until 50 μg/ml
Method: To investigate whether the humanized anti-Ang2 antibodies induce the downstream signaling of the Tie2 receptor in endothelial cells, HUVECs (LONZA™) were treated with human Ang2 protein together with humanized anti-Ang2 antibody. Then, the level of Akt phosphorylation, the main downstream signaling protein of Tie2 receptor was measured by immunoblotting. To compare the degree of Akt activation, cells were treated with full-length hAng2 (R&D® Systems) alone or antibody alone in the experiment.
Specifically, HUVEC cells (1×10^5 cells/ml) were cultured in EGM-2 (LONZA™) at 37° C. in 60 mm culture dish. Cells of 90% confluency were incubated with EBM-2 (LONZA™) for 4 hrs. The serum-starved HUVECs were treated with the mixture of anti-Ang2 antibody and hAng2 protein (1 μg/ml, R&D® Systems), and further incubated for 30 min. The cells were washed with cold PBS, treated with lysis buffer, and lysed at 4° C. for 20 min. Then, the cell lysates were prepared by centrifugation at 13000 rpm for 15 min. 5× SDS sample buffer was added to the cell lysate and the mixture was boiled at 95° C. for 5 min. Then, the mixture was subjected to SDS-PAGE and subsequent Western blotting.
To investigate the phosphorylation of Akt, the membrane was blocked with 5% skim milk-containing TBST for 1 hr at RT, and incubated with anti-phospho-Akt antibody (S473) at 4° C. for about 8 hrs. […]

HUVEC monolayer = assay: In vitro vascular permeability (leakage) assay, TNF-α induced, FITC-dextran; type: cell-based, human; details: HUVECs; pre-treatment antibody 1 μg/ml with Ang2 1 μg/ml 30 min; TNF-α 100 ng/ml 22 hr
Method: Vascular leakage assay was carried out in HUVECs using In Vitro Vascular Permeability Assay Kit (Millipore®) according to the manufacturer's instruction. HUVECs were seeded into the insert of the transwell plate and cultured for 3 days for 100% confluence. The HUVECs were pre-incubated with Ang2 (1 μg/ml), Ang2 (1 μg/ml) together with Control, 2C8H11 or 4B9H11 antibody (1 μg/ml) for 30 min, and then TNF-α (100 ng/ml) was added, and the cells were incubated at 37° C. for 22 hr. FITC-dextran was added to the upper chamber and incubated for 20 min. Passage of FITC-dextran though the HUVEC monolayer was measured by a fluorescence reader at excitation and emission wavelengths of 485 and 535 nm, respectively.

[2] = system: CD31+ endothelial cells of CNV; assay: Co-localization of subcutaneously injected antibody with CD31 in endothelial cells of CNV; type: in vivo, mice; details: 25 mg/kg subcutaneous at 1 day; 2, 4 and 8 days after laser photocoagulation
Method: To investigate whether subcutaneously injected 2C8H11 can also exert the therapeutic effects on CNV, we firstly evaluated co-localization 2C8H11 antibody and CD31 in endothelial cells of CNV. The subcutaneous administration of 2C8H11 antibody (25 mg/kg) was performed at 1 day after laser photocoagulation. As a control, Fc (25 mg/kg) was administered in the same manner to the mice. The co-localization of 2C8H11 antibody and anti-CD31 antibody (1:200, Millipore®) in endothelial cells of CNV was directly detected by anti-human IgG antibody (1:1000, Jackson ImmunoResearch Laboratories) at 2, 4, and 8 days after laser photocoagulation (FIG. 15A).

Kdis (hAng2): 1.4e-05 s⁻¹
Kon (hAng2): 66000 M⁻¹ s⁻¹
Akt phosphorylation [1]: increased markedly
B1: 2C8H11: humanized anti-Ang2 human IgG1 antibody from mouse 2C8; VH SEQ ID NO: 55, VL SEQ ID NO: 56 (antibody, V domains shown)
VH: QVQLVQSGAEVKKPGASVKVSCKASGYTFTSYWMHWVRQAPGQGLEWMGMIDPSDSETRLNQKFKDRVTMTRDTSTSTVYMELSSLRSEDTAVYYCARRFYYGSDWYFDVWGQGTLVTVSS
VL: DIQLTQSPSFLSASVGDRVTITCKASQDVGTAVAWYQQKPGKAPKLLIYWASTRHTGVPSRFSGSGSGTEFTLTISSLQPEDFATYYCQQYSSYPLTFGQGTKVEIK
modifications: human IgG1 constant regions; VH; VL
vascular leakage induced by TNF-α (passage of FITC-dextran) (HUVEC monolayer): significantly inhibited
detection of administered antibody in CD31+ endothelial cells in CNV area [2]: highly detectable
